The source of these data is patent US20210009963A1 (LYSENTECH, published 2021).

The target in this assay is T1, wild type bacteriophage T7 (bacteriophage T7, UniProt P19726 1-345; P19727 1-398).
T1 construct: Whole phage particle without a homing peptide, used as the control; also called WT T7; wild type T7
T1 sequence 1: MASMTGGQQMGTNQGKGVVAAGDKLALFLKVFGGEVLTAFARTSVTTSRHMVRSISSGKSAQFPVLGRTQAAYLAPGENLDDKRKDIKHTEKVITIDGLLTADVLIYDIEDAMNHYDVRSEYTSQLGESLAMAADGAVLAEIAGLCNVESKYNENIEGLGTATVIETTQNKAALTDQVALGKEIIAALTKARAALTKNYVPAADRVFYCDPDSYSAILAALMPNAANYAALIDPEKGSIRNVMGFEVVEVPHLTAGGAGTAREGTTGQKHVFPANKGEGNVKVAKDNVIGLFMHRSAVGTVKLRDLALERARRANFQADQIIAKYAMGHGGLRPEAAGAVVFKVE
T1 sequence 2: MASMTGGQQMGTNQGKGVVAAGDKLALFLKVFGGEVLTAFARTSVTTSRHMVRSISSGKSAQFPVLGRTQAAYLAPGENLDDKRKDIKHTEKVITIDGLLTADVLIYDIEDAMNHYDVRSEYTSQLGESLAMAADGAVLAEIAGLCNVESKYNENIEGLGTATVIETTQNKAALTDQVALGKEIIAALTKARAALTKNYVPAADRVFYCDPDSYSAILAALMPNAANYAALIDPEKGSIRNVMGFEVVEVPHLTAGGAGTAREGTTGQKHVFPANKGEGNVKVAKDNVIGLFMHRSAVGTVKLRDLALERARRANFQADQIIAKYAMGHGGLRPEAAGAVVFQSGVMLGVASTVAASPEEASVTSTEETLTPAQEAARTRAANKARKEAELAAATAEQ
Nature of the assay: confocal fluorescence microscopy of B16F10 cells, anti-T7 antibody staining after washing.

B1: grp78 on B16F10 mouse melanoma cells (receptor)
chain: not shown
notes: whole, on cells; The assay was done on whole B16F10 cells; also called receptor for pep42; B16F10 cells
On to B1, for which the binding result is recorded as “no binding (tested: 1×10^7 PFU of phages)”.
